The Human Domainome abundance scans (Beltran et al. 2025)
± gives the uncertainty stated by the source.

B1: Intersectin-1, residues 909 to 971; numbered along this chain, Q15811 (parent)
chain: QGEKVEGLQAQALYPWRAKKDNHLNFNKNDVITVLEQQDMWWFGEVQGQKGWFPKSYVKLISG

Variants of: B1
Test: abundance fitness (aPCA) (normalised: wild type 0, dead -1); higher = more abundant; growth selection in yeast, the domain comes from the species named
Settings: Homo sapiens

Point of comparison: QGEKVEGLQAQALYPWRAKKDNHLNFNKNDVITVLEQQDMWWFGEVQGQKGGFPKSYVKLISG [W52G], abundance fitness -1.18 ± 0.39. Against it:
- QGEKVEGLQAQALYPWRAKKDNHLNFNKNDVITVLEQQDMWWFGEVQGQKGWFPKSCVKLISG [Y57C] — higher, -0.153 ± 0.14
- QGEKVEGLQAQALYPWRAKKDNHLNFNKNDVITVLEQQDMWWFGEVQGQKGWFPKSEVKLISG [Y57E] — higher, -0.243 ± 0.22
- QGEKVEGLQAQALYPWRAKKDNHLNFNKNDVITVLEQQDMWWFGEVQGQKGWFLKSYVKLISG [P54L] — higher, -0.215 ± 0.11
- QGEKVEGLQAQALYPWRAKKDNHLNFNKNDVITVLEQQDMWWFGEVQGQKGWFRKSYVKLISG [P54R] — within error, -0.714 ± 0.12
- QGEKVEGLQAQALYPWRAKKDNHLNFNKNDVITVLEQQDMWWFGEVQGQKGWFCKSYVKLISG [P54C] — within error, -0.765 ± 0.34
- QGEKVEGLQAQALYPWRAKKDNHLNFNKNDVITVLEQQDMWWFGEVQGQKGWFGKSYVKLISG [P54G] — the same, -1.18 ± 0.41
- QGEKVEGLQAQALYPWRAKKDNHLNFNKNDVITVLEQQDMWWFGEVQGQKGWFFKSYVKLISG [P54F] — within error, -0.8 ± 0.46
- QGEKVEGLQAQALYPWRAKKDNHLNFNKNDVITVLEQQDMWWFGEVQGQKGWFQKSYVKLISG [P54Q] — within error, -0.688 ± 0.3
- QGEKVEGLQAQALYPWRAKKDNHLNFNKNDVITVLEQQDMWWFGEVQGQKGWFEKSYVKLISG [P54E] — higher, -0.474 ± 0.14
- QGEKVEGLQAQALYPWRAKKDNHLNFNKNDVITVLEQQDMWWFGEVQGQKGWFVKSYVKLISG [P54V] — higher, -0.499 ± 0.12
- QGEKVEGLQAQALYPWRAKKDNHLNFNKNDVITVLEQQDMWWFGEVQGQKGWFSKSYVKLISG [P54S] — within error, -0.88 ± 0.27
- QGEKVEGLQAQALYPWRAKKDNHLNFNKNDVITVLEQQDMWWFGEVQGQKGWFKKSYVKLISG [P54K] — higher, -0.354 ± 0.22
- QGEKVEGLQAQALYPWRAKKDNHLNFNKNDVITVLEQQDMWWFGEVQGQKGWFWKSYVKLISG [P54W] — higher, -0.437 ± 0.18
- QGEKVEGLQAQALYPWRAKKDNHLNFNKNDVITVLEQQDMWWFGEVQGQKGWFDKSYVKLISG [P54D] — within error, -0.721 ± 0.27
- QGEKVEGLQAQALYPWRAKKDNHLNFNKNDVITVLEQQDMWWFGEVQGQKGWFMKSYVKLISG [P54M] — higher, -0.25 ± 0.11
- QGEKVEGLQAQALYPWRAKKDNHLNFNKNDVITVLEQQDMWWFGEVQGQKGWFPKEYVKLISG [S56E] — higher, -0.178 ± 0.18
- QGEKVEGLQAQALYPWRAKKDNHLNFNKNDVITVLEQQDMWWFGEVQGQKGWFPKVYVKLISG [S56V] — higher, -0.099 ± 0.081
- QGEKVEGLQAQALYPWRAKKDNHLNFNKNDVITVLEQQDMWWFGEVQGQKGWFPKLYVKLISG [S56L] — higher, -0.102 ± 0.092
- QGEKVEGLQAQALYPWRAKKDNHLNFNKNDVITVLEQQDMWWFGEVQGQKGWFPKAYVKLISG [S56A] — higher, -0.137 ± 0.13
- QGEKVEGLQAQALYPWRAKKDNHLNFNKNDVITVLEQQDMWWFGEVQGQKGWFPKWYVKLISG [S56W] — higher, -0.393 ± 0.17
- QGEKVEGLQAQALYPWRAKKDNHLNFNKNDVITVLEQQDMWWFGEVQGQKGWFPKDYVKLISG [S56D] — higher, -0.1 ± 0.18
- QGEKVEGLQAQALYPWRAKKDNHLNFNKNDVITVLEQQDMWWFGEVQGQKGWFPKFYVKLISG [S56F] — higher, -0.239 ± 0.19
- QGEKVEGLQAQALYPWRAKKDNHLNFNKNDVITVLEQQDMWWFGEVQGQKGWFPKTYVKLISG [S56T] — higher, -0.016 ± 0.16
- QGEKVEGLQAQALYPWRAKKDNHLNFNKNDVITVLEQQDMWWFGEVQGQKGWFPKKYVKLISG [S56K] — higher, -0.251 ± 0.2
- QGEKVEGLQAQALYPWRAKKDNHLNFNKNDVITVLEQQDMWWFGEVQGQKGWFPKPYVKLISG [S56P] — higher, -0.298 ± 0.22
- QGEKVEGLQAQALYPWRAKKDNHLNFNKNDVITVLEQQDMWWFGEVQGQKGWFPKMYVKLISG [S56M] — higher, -0.238 ± 0.12
- QGEKVEGLQAQALYPWRAKKDNHLNFNKNDVITVLEQQDMWWFGEVQGQKGWFPKYYVKLISG [S56Y] — higher, -0.225 ± 0.28
- QGEKVEGLQAQALYPWRAKKDNHLNFNKNDVITVLEQQDMWWFGEVQGQKGWFPKQYVKLISG [S56Q] — higher, -0.099 ± 0.2
- QGEKVEGLQAQALYPWRAKKDNHLNFNKNDVITVLEQQDMWWFGEVQGQKGWFPKIYVKLISG [S56I] — higher, -0.491 ± 0.26
- QGEKVEGLQAQALYPWRAKKDNHLNFNKNDVITVLEQQDMWWFGEVQGQKGWFPKGYVKLISG [S56G] — higher, -0.147 ± 0.068
- QGEKVEGLQAQALYPWRAKKDNHLNFNKNDVITVLEQQDMWWFGEVQGQKGWFPKCYVKLISG [S56C] — higher, -0.204 ± 0.28
- QGEKVEGLQAQALYPWRAKKDNHLNFNKNDVITVLEQQDMWWFGEVQGQKGVFPKSYVKLISG [W52V] — within error, -0.944 ± 0.25
- QGEKVEGLQAQALYPWRAKKDNHLNFNKNDVITVLEQQDMWWFGEVQGQKGIFPKSYVKLISG [W52I] — higher, -0.458 ± 0.25
- QGEKVEGLQAQALYPWRAKKDNHLNFNKNDVITVLEQQDMWWFGEVQGQKGTFPKSYVKLISG [W52T] — within error, -0.89 ± 0.28
- QGEKVEGLQAQALYPWRAKKDNHLNFNKNDVITVLEQQDMWWFGEVQGQKGSFPKSYVKLISG [W52S] — within error, -1.15 ± 0.41
- QGEKVEGLQAQALYPWRAKKDNHLNFNKNDVITVLEQQDMWWFGEVQGQKGPFPKSYVKLISG [W52P] — within error, -0.721 ± 0.27
- QGEKVEGLQAQALYPWRAKKDNHLNFNKNDVITVLEQQDMWWFGEVQGQKGAFPKSYVKLISG [W52A] — within error, -0.708 ± 0.41
- QGEKVEGLQAQALYPWRAKKDNHLNFNKNDVITVLEQQDMWWFGEVQGQKGFFPKSYVKLISG [W52F] — higher, -0.232 ± 0.4
- QGEKVEGLQAQALYPWRAKKDNHLNFNKNDVITVLEQQDMWWFGEVQGQKGKFPKSYVKLISG [W52K] — within error, -0.375 ± 0.45
- QGEKVEGLQAQALYPWRAKKDNHLNFNKNDVITVLEQQDMWWFGEVQGQKGQFPKSYVKLISG [W52Q] — within error, -0.776 ± 0.46
- QGEKVEGLQAQALYPWRAKKDNHLNFNKNDVITVLEQQDMWWFGEVQGQKGRFPKSYVKLISG [W52R] — within error, -1 ± 0.21
- QGEKVEGLQAQALYPWRAKKDNHLNFNKNDVITVLEQQDMWWFGEVQGQKGMFPKSYVKLISG [W52M] — within error, -0.804 ± 0.46
